Consider three molecules from patent US20200332015A1 (NAMAB THERAPEUTICS, published 2020).

Test [1] has as its target cynomolgus PDL1-Fc chimeric protein (cynomolgus, UniProt G7PSE7 19-238). Briefly: SPR T200, antigen-Fc captured, molecule as analyte. As to the method: (§1) Affinity to PDL1 of the different species was determined by SPR measurements using a Biacore T200 device (GE Healthcare). An antibody specific for the Fc region of human IgGs was immobilized on a sensor chip (CM5 sensor chip, GE Healthcare) by amine-coupling. For all formats, with the exception of the Fc containing Morrison formats, PDL1-Fc chimeric protein from different species were captured by the immobilized antibody. Three-fold serial dilutions of the molecules specific for PDL1 (0.12-90 nM) were injected into the flow cells for three minutes and dissociation was monitored for 10 minutes. After each injection cycle, surfaces were regenerated with one injection of a 3 M MgCl₂ solution. The apparent dissociation (kd) and association (kₐ) rate constants and the apparent dissociation equilibrium constant (KD) were calculated using one-to-one Langmuir binding model. Affinity to CD137 of the different species was determined using the identical setup as for PDL1 with the exception that CD137-Fc chimeric proteins from different species were captured by the immobilized antibody.

For test [2], the target named is human PDL1-Fc chimeric protein (human, UniProt Q9NZQ7 19-238, limits assumed). Briefly: SPR T200, antigen-Fc captured, molecule as analyte. As to the method: as §1
Test [3] addresses T1, human PDL1 extracellular domain (human, UniProt Q9NZQ7 19-238).
T1 construct: extracellular domain; Analyte for the Fc containing Morrison formats
The test can be described thus: SPR T200, Morrison format captured, ECD analyte. As to the method:
as §1
The Fc containing formats were directly captured by the antibody specific for the Fc region of human IgGs. Two-fold serial dilutions of PDL1 extracellular domain or CD137 extracellular domain ranging from 90 to 0.35 nM were tested for binding to the IgG captured on the biosensor chip. After each injection cycle, surfaces were regenerated with one injection of a 3 M MgCl2 solution.

Broadly, the Kd is a measure of binding affinity in units of concentration. A higher Kd goes with lower affinity. Usually koff stands for the rate constant with which the complex falls apart. The kon is the rate constant with which the complex forms.

Chain of cynomolgus PDL1-Fc chimeric protein (G7PSE7 entry or part of it mutant): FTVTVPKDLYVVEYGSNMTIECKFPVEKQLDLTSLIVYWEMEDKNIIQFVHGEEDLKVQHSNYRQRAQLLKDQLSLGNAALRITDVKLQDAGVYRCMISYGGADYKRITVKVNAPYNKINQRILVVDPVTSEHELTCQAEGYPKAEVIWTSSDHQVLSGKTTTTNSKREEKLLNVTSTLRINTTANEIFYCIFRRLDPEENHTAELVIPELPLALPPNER

B1: PRO1013 (37-20-B03 CDR, VH1, scFv) (scFv)
scFv: DIQMTQSPSSLSASVGDRVTITCQASQSIGTYLAWYQQKPGKAPKLLIYRAFILASGVPSRFSGSGSGTDFTLTISSLQPEDFATYYCQSNFYSDSTTIGPNAFGTGTKVTVLGGGGGSGGGGSGGGGSGGGGSQVQLVQSGAEVKKPGASVKVSCKASGFSFNSDYWIYWVRQAPGQGLEWMGSIYGGSSGNTQYASWAQGRVTMTRDTSISTAYMELSSLRSEDTAVYYCARGYVDYGGATDLWGQGTLVTVSS
notes: its row bears no clone label
In test [1], B1 returned a Kd of 0.053 nM, a koff of 0.00032 s⁻¹ and a kon of 5.9e+06 M⁻¹ s⁻¹. In test [2], the Kd was 0.045 nM, the koff came to 0.00027 s⁻¹ and the kon was 6e+06 M⁻¹ s⁻¹.

B2: PRO1062 (33-03-G02 sc01 IgG1 HC with 38_27_C05 sc01 scFv, PDL1/CD137(scFv) silent Morrison) (bispecific antibody)
light: DIQMTQSPSSLSASVGDRVTITCQASQSINDYLAWYQQKPGKAPKLLIYKASTLASGVPSRFSGSGSGTDFTLTISSLQPEDFATYYCQQGYIITDIDNVFGTGTKVTVLGTVAAPSVFIFPPSDEQLKSGTASVVCLLNNFYPREAKVQWKVDNALQSGNSQESVTEQDSKDSTYSLSSTLTLSKADYEKHKVYACEVTHQGLSSPVTKSFNRGEC
heavy: QVQLQESGPGLVKPSETLSLTCKVSGFSFSSGYDMCWIRQPPGKGLEWIGCVVAGSVDITYYASWAKGRVTISVDSSKNQFSLKLSSVTAADTAVYYCARKDAYSDAFNLWGQGTLVTVSSASTKGPSVFPLAPSSKSTSGGTAALGCLVKDYFPEPVTVSWNSGALTSGVHTFPAVLQSSGLYSLSSVVTVPSSSLGTQTYICNVNHKPSNTKVDKRVEPKSCDKTHTCPPCPAPEAAGGPSVFLFPPKPKDTLMISRTPEVTCVVVDVSHEDPEVKFNWYVDGVEVHNAKTKPREEQYNSTYRVVSVLTVLHQDWLNGKEYKCKVSNKALGAPIEKTISKAKGQPREPQVYTLPPSREEMTKNQVSLTCLVKGFYPSDIAVEWESNGQPENNYKTTPPVLDSDGSFFLYSKLTVDKSRWQQGNVFSCSVMHEALHNHYTQKSLSLSPGKGGGGSGGGGSIQMTQSPSSLSASVGDRVTITCQASQSINNVLAWYQQKPGKAPKLLIYRASTLASGVPSRFSGSGSGTDFTLTISSLQPEDFATYYCQSSYGNYGDFGTGTKVTVLGGGGGSGGGGSGGGGSGGGGSQVQLQESGPGLVKPSETLSLTCKVSGFSFSNSYWICWIRQPPGKGLEWIGCTFVGSSDSTYYANWAKGRVTISVDSSKNQFSLKLSSVTAADTAVYYCARHPSDAVYGYANNLWGQGTLVTVSS
notes: also called PR01062; Morrison-H
Take B2: in test [3], binding was put at a Kd of 0.038 nM, the koff was determined as 5e-05 s⁻¹ and the kon is 1.3e+06 M⁻¹ s⁻¹.

B3: PRO830 (33-03-G02 CDR, scFv) (scFv)
scFv: DIQMTQSPSSLSASVGDRVTITCQASQSINDYLAWYQQKPGKAPKLLIYKASTLASGVPSRFSGSGSGTDFTLTISSLQPEDFATYYCQQGYIITDIDNVFGTGTKVTVLGGGGGSGGGGSGGGGSGGGGSQVQLQESGPGLVKPSETLSLTCKVSGFSFSSGYDMCWIRQPPGKGLEWIGCVVAGSVDITYYASWAKGRVTISVDSSKNQFSLKLSSVTAADTAVYYCARKDAYSDAFNLWGQGTLVTVSS
As to B3, in test [1], the Kd was found to be 0.094 nM, the koff was 0.0002 s⁻¹ and the kon turned out to be 2.2e+06 M⁻¹ s⁻¹. In test [2], binding was characterised by a dissociation constant (Kd) of 0.076 nM, the koff turned out to be 0.00016 s⁻¹ and the kon came to 2.1e+06 M⁻¹ s⁻¹.
